Laboratory results reported in US20070003557A1, “Method for treating cancer using premedication” (priority 2005, published 2007).
Entries after “also recorded” stand apart in the source; their conditions may differ.

Tests used:
Type in all cases: in vivo, human
[1] = Infusion reactions caused by KM-871 in patients, premedication with Benadryl and Zantac (Example 1); conditions: per patient; for Infusion reaction, 1st administration / Infusion reaction, 2nd administration / Infusion reaction, 3rd administration: KM-871 40 mg/m^2 every two weeks, Benadryl 50 mg and Zantac 50 mg parenterally 30 min before, at the administrations named in column Pre-medication; for Infusion reaction, Test: KM-871 test dose 10 mg/m^2 two weeks prior to 1st administration
Procedure: The following test was performed to suppress the infusion reactions caused by human anti-GD3 chimeric antibody.
A human chimeric antibody which specifically binds to ganglioside GD3, wherein the human chimeric antibody comprises the H chain V region of the antibody comprising the amino acid sequence represented by SEQ ID NO:3 and the L chain V region of the antibody comprising the amino acid sequence represented by SEQ ID NO:4 was produced according to U.S. Pat. No. 6,437,098 (hereinafter referred to as ‘KM-871’).
(§1) KM-871 was administered to each patient with a dose of 40 mg/m^2 once every two weeks for four times as a general rule. Benadryl (50 mg) and Zantac (50 mg) were parenterally administered to the patient 30 minutes prior to each administration of KM-871 except for the first administration.
(§2) As a test dose, KM-871 (10 mg/m^2), was administered to the patient two weeks prior to the first administration of KM-871 to confirm its safeness.

[2] = Infusion reactions caused by KM-871 in one patient, premedication before second and third administration (Example 5)
Procedure: On the day of the second administration of KM-871, Benadryl (100 mg), Zantac (50 mg), Singulair (10 mg), Zyrtec (10 mg) and Dexametazone (10 mg) were administered to the patient followed by the administration of KM-871.
Prior to the third administration of KM-871, Benadryl (100 mg), Zantac (50 mg), Singulair (10 mg), and Zyrtec (10 mg), were administered to the patient.

[3] = Infusion reactions caused by KM-871 in patients, premedication with Sigulair and Zertec (Example 2); conditions: per patient
Procedure: (§3) The following test was performed by using various compounds to suppress the infusion reactions caused by KM-871.
KM-871 was administered to each patient with a dose of 40 mg/m^2 once every two weeks for four times as a general rule. Sigulair (10 mg) and Zertec (10 mg) were orally administered to the patient 30 minutes prior to each administration of KM-871 except for the first administration.
as §2

[4] = Infusion reactions caused by KM-871 in patients, premedication with Sigulair, Zertec, Benadryl and Zantac (Example 3); conditions: per patient, KM-871 40 mg/m^2 every two weeks, Sigulair 10 mg, Zertec 10 mg orally and Benadryl 50 mg, Zantac 50 mg parenterally 30 min before, at the administrations named in column Pre-medication
Procedure: as §3
as §1, with “rule. Sigulair (10 mg) and Zertec (10 mg) were orally administered and” for “rule.”
as §2

[5] = Infusion reactions caused by KM-871 in patients, premedication with Sigulair, Zertec, Benadryl, Zantac and Dexametazone (Example 4); conditions: one patient
Procedure: as §3
as §1, with “or 80 mg/m^2” for “once”, “rule. Sigulair (10 mg) and Zertec (10 mg) were orally administered and” for “rule.”, “Benadryl (50 mg), Zantac” for “Benadryl”, “Dexametazone (20” for “Zantac (50”
As a test dose, KM-871 (10 mg/m^2), was administered to the patient two weeks prior to the first administration of KM-871 to confirm its safeness. When toxicity or infusion reactions are observed to the patient by the administration, the administration was withdrawn.

[6] = premedication at 1st administration
[7] = premedication at 1st and 2nd administration
[8] = premedication at 2nd administration
[9] = KM-871 40 mg/m^2 every two weeks, Sigulair 10 mg and Zertec 10 mg orally 30 min before, at the administrations named in column Pre-medication
[10] = KM-871 test dose 10 mg/m^2 two weeks prior to 1st administration

B1: KM-871: human chimeric antibody binding ganglioside GD3; H chain V region SEQ ID NO:3, L chain V region SEQ ID NO:4; produced per U.S. Pat. No. 6,437,098 (antibody, V domains shown)
VH: EVQLVESGGDFVQPGGSLRVSCAASGFAFSHYAMSWVRQAPGKGLEWVAYISSGGSGTYYSDSVKGRFTISRDNSKNTLYLQMRSLRAEDSAVYFCTRVKLGTYYFDSWGQGTLLTVSS
VL: DIQMTQSPSSLSASVGDRVTITCSASQDISNYLNWYQQKPDKAPKLLIFYSSNLHSGVPSRFSGGGSGTDYTLTISSLQPEDIATYFCHQYSKLPWTFGQGTKVEIKR
modifications: Artificial Sequence H chain V region of the antibody; Artificial Sequence L chain V region of the antibody
[1]; [6]
  Infusion reaction, 1st administration: ARMS, LEGS, ERYTHEMA; also recorded: FEVER; also recorded: RIGORS
  Infusion reaction, 2nd administration: CHILLS; also recorded: FEVER
  Infusion reaction, 3rd administration: HIVES
  Infusion reaction, Test: FEVER; also recorded: HIVES
[1]; [7]
  Infusion reaction, 1st administration: FULLNESS IN THROAT
  Infusion reaction, 2nd administration: HIVES
  Infusion reaction, Test: ITCHING
[1]; [8]
  Infusion reaction, 1st administration: ITCHING; also recorded: RIGORS
  Infusion reaction, 3rd administration: CHILLS
[2]; 4 mg/m^2 of KM-871, no premedication stated
  Infusion reactions at the first administration: Rash, Urticaria, Itching
[2]; premedication Benadryl 100 mg, Zantac 50 mg, Singulair 10 mg and Zyrtec 10 mg before KM-871
  Infusion reactions after the third administration: infusion reactions did not appear
[2]; premedication Benadryl 100 mg, Zantac 50 mg, Singulair 10 mg, Zyrtec 10 mg and Dexametazone 10 mg the same day before KM-871
  Infusion reactions after the second administration: infusion reactions did not appear
[3]; [9]
  Infusion reaction, 1st administration: CHILLS; also recorded: THROAT SWELLING; also recorded: ITCHING/HIVES
  Infusion reaction, 2nd administration: HIVES
  Infusion reaction, 3rd administration: HIVES ON HANDS
[3]; [10]
  Infusion reaction, Test: FACIAL FLUSHING; also recorded: HIVES/ITCHING
[4]
  Infusion reaction, 2nd administration: ITCHING
[4]; premedication at 1st, 2nd and 3rd administrations
  Infusion reaction, 1st administration: HIVES; also recorded: ITCHING
[4]; premedication at 2nd and 4th administrations
  Infusion reaction, 1st administration: FEVER; also recorded: HIVES/ITCHING
[4]; premedication at 2nd, 3rd and 4th administrations
  Infusion reaction, 1st administration: FEVER
[5]; KM-871 40 mg/m^2 or 80 mg/m^2 every two weeks, premedication (Sigulair, Zertec, Benadryl, Zantac, Dexametazone) at 2nd administration
  Infusion reaction, 1st administration: HIVES
[5]; [10]
  Infusion reaction, Test: RASH
